Consider two substances from paper PMC7756140.

Experiment in all cases: MST
The target of experiment [1] is CCR5^QTY – SZ218a (E. coli).
In experiment [2] the target is CCR5^QTY (SF9).
The target in experiment [3] is CCR5^QTY – SZ190b (SF9).
For experiment [4], the target named is CCR5^QTY – SZ218a (SF9).
In experiment [5] the target is CCR5^QTY (E. coli).
The target in experiment [6] is CCR5^QTY – SZ190b (E. coli).
Experiment [7] has as its target CXCR4^QTY – SZ158a (E. coli).
For experiment [8], the target named is CXCR4^QTY (E. coli).

Broadly, the Kd is the concentration at which binding is half-saturated. A low value points to tighter binding. “CCL5 (from UniProt P13501 24-91) (ligand)”: the Kd is 87.7 nM in experiment [1]; 41.1 nM in experiment [2]; 37.8 nM in experiment [3]; 51.7 nM in experiment [4]; 6.8 nM in experiment [5]; 55.8 nM in experiment [6].
With HIV-1 coat glycoprotein gp41-120, the Kd in experiment [7] was found to be 200 nM; in experiment [8], 7 nM.
